The record followed here is patent US20220127372A1.

Sequences and labels used below:
B1: GPC3-SL-mCD3ε (protein)
chain: EVQLVQSGAEVKKPGASVKVSCKASGYTFSDYEMHWVRQAPGQGLEWMGAIHPGSGDTAYNQRFKGRVTITADKSTSTAYMELSSLRSEDTAVYYCARFYSYAYWGQGTLVTVSAGGGGSGGGGSGGGGSDIVMTQTPLSLPVTPGEPASISCRSSQSLVHSNGNTYLQWYLQKPGQSPQLLIYKVSNRFSGVPDRFSGSGSGTDFTLKISRVEAEDVGVYYCSQSIYVPYTFGQGTKLEIKRAAAGGGGSGGGGSGGGGSLEDDAENIEYKVSISGTSVELTCPLDSDENLKWEKNGQELPQKHDKHLVLQDFSEVEDSGYYVCYTPASNKNTYLYLKARVCEYCVEVDLTAVAIIIIVDICITLGLLMVIYYWSKNRKAKAKPVTRGTGAGSRPRGQNKERPPPVPNPDYEPIRKGQRDLYSGLNQRAV
B2: GPC3-SL-mCD3ε-NFAT-mIL12 (protein)
chain: B1 chain
B3: GPC3-SL-mCD3ε-F2A-mIL7-P2A-mCCL21b (protein)
chain: B1 chain
B4: GPC3-SL-mCD3ε-F2A-mRunx3 (protein)
chain: B1 chain
B5: GPC3-SL-mCD3ε-F2A-mCCL21b (protein)
chain: B1 chain

This assay addresses mouse GPC3 protein (mouse) (UniProt Q8CFZ4). Kind of assay: cell-based or functional assay.
UniProt Q8CFZ4, sequence (Q8CFZ4 25-579 limits assumed): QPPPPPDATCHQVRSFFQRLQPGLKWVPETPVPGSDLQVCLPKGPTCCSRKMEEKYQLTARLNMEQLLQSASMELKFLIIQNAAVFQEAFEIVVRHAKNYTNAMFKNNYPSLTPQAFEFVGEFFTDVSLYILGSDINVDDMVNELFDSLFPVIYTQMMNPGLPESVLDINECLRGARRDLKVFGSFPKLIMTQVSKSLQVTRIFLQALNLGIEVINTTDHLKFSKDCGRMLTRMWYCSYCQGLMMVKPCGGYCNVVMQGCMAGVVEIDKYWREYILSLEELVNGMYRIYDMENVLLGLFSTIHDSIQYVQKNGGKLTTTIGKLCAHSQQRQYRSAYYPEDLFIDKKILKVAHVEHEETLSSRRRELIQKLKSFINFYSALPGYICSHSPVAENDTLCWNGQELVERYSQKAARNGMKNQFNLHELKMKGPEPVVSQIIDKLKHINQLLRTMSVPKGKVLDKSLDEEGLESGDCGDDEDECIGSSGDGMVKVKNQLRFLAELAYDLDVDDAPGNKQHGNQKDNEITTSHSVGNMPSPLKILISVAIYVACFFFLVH
Turning to B1, the cytotoxicity to Hepa 1-6 GPC3 cells, effector target ratio 1:1, 18 h (CytoTox 96) was 70.7%.

With B2, the cytotoxicity to Hepa 1-6 GPC3 cells, effector target ratio 1:1, 18 h (CytoTox 96) is 91.5%. For B3, the cytotoxicity to Hepa 1-6 GPC3 cells, effector target ratio 1:1, 18 h (CytoTox 96) turned out to be 73.4%. For the molecule B4, the cytotoxicity to Hepa 1-6 GPC3 cells, effector target ratio 1:1, 18 h (CytoTox 96) is 82.2%.

With B5, the cytotoxicity to Hepa 1-6 GPC3 cells, effector target ratio 1:1, 18 h (CytoTox 96) came out at 73.2%.
